Measurements published in the supplement of paper PMC12042874.
± gives the uncertainty stated by the source.

Test: amyloid nucleation score (Sup35N fusion, yeast selection) (log enrichment); library NNK2; higher = more nucleation; inactive = no reads after selection
Procedure, shortened: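 Sup35N was fused to peptides of 20 random codons and expressed in psi-negative yeast, which were induced with 100 μM copper sulfate for 24 hours and then grown on medium lacking adenine and uracil for 7 days at 30°C. Plasmid inserts from input and output were sequenced on Illumina. The nucleation score is the DiMSum log enrichment of output over input reads, centred on the mode score of non-aggregating sequences. Sequences with under 100 input reads were left out, and random libraries had three technical output replicates.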

| Substance | amyloid nucleation score |
| --- | --- |
| VATLRSRHFDEHSHVVFSSS | 0.236 ± 0.29 |
| LSHRNPASRNYRPWQLNC | 0.245 ± 0.29 |
| SVKNR | 3.51 ± 0.049 |
| FFSRFERPLQCNIFKL | 4.13 ± 0.12 |
| AFATRCCSTLIDPSFVIGTG | 0.692 ± 0.41 |
| HVRVYHPGQMNCSRYNTMQ | 0.217 ± 0.65 |
| FGLMLRTS | 0.062 ± 0.41 |
| YISMKWEVAHNYWWILSGIP | 0.444 ± 0.25 |
| SGGVR | 0.94 ± 0.32 |
| YDNMC | -0.72 ± 0.35 |
| TSLGNL | -0.825 ± 1.1 |
| TCGLFTA | 1.2 ± 0.44 |
| GNVWILIYNV | 6.164 ± 0.057 |
| YIWILWIAMEQNKSWRGQHD | 4.44 ± 0.12 |
| IMMNNMAVIFR | 6.3 ± 0.083 |
| LLLGINSCQEQPKGSFEERH | -0.91 ± 1.1 |
| SKCVWIKDQNFFQVDTNESI | 1.73 ± 0.34 |
| FFQGSVSLCFQASHQWSFLI | 3.06 ± 0.11 |
| IERRVTWFLTLARCKLPTGQ | 0.796 ± 0.33 |
| SLVYKGLCILSTLFLYFDFL | -0.337 ± 1 |
| VYLGIFRL | 2.76 ± 0.13 |
| CAVGDPYCSAMFMMNLWGEK | 9.547 ± 0.052 |
| ELTTIG | 1.62 ± 0.28 |
| RGVLTSSLFPSKGRWVVGHW | 2.35 ± 0.075 |
| CILYKEACEIVIFPGFTVAN | -1.15 ± 1 |

| Substance | amyloid nucleation score |
| --- | --- |
| TRDAVGVLTLSSTLTTCSTC | -0.26 ± 0.35 |
| NFSYRSFNRLVRGRD | inactive |
| LKWQSYG | 0.952 ± 0.28 |
| QIQVLGWSRKSLMDNKL | inactive |
| GRTVQIMDRVFS | -1.12 ± 0.76 |
| YLWPALPR | 0.142 ± 0.46 |
| HRKAYEPWFGCNMTYAGLGN | -0.232 ± 0.65 |
| NIVQEHTTCTEVRGVSALAR | 0.436 ± 0.66 |
| LTLLFGRSVSEWVWNLMDRC | -0.461 ± 0.29 |
| NRHPRRYRNNAGDDSLMRIL | 1.74 ± 0.096 |
| VLNRLERASSVREQGIIRGR | 0.252 ± 0.29 |
| LMKLNSTLSFDYFPLT | -0.166 ± 0.65 |
| NFSDWIYVFSEVPMLVRCRW | 0.261 ± 0.42 |
| IRIGFRMHCLVIQYMNCFIS | 2.18 ± 0.075 |
| KGFEIFSSFTLYV | -0.684 ± 0.55 |
| ADMIMRYKG | 0.879 ± 0.57 |
| YRGLTSLYLFNQV | -0.08 ± 0.23 |
| DLGGQMNYLVLMGNDMWNV | -1.01 ± 0.78 |
| QCFDFTD | 1.1 ± 0.38 |
| SSFRSLRSRHPPGTLPPDTP | 0.919 ± 0.3 |
| FQDDDDPFFCVFAYFIGFFA | -0.983 ± 1.1 |
| KSNLCLNVHGSLGICPTHDL | 0.178 ± 0.37 |
| FAFAINRFCDSRRPVLCYWD | -1.21 ± 1.1 |
| LEVLVLDVYSYVSLHVGTFV | 0.051 ± 0.35 |
| VVNDIATLLRVMNEYYAESA | -0.531 ± 0.79 |

| Substance | amyloid nucleation score |
| --- | --- |
| FISRVMVSGVLTGLAWPM | 0.151 ± 0.43 |
| LSFISRRDNDGYMICEYSLP | 0.264 ± 0.65 |
| SRCLSSITVLTCNHMSVKAC | 0.224 ± 0.8 |
| LKNVCFCIWRISWNKISQKI | inactive |
| SVDGMLSVSVLVNDVVKTPL | 0.309 ± 0.22 |
| VLSLLMPVVRIVWKFN | -0.084 ± 0.76 |
| FIIDWSVKFGICSICLAT | 5.448 ± 0.042 |
| MGSFKC | -1.32 ± 0.63 |
| DDIIISPVPDHE | inactive |
| CWSPLGTFSLLALMGASKTL | 0.103 ± 0.42 |
| AVDFKQDNHKYVNSLTDMGA | 0.034 ± 1.1 |
| LYFLV | 6.55 ± 0.085 |
| WRCDLSNPTFAMYVDAVWAS | 1.16 ± 0.18 |
| ENELSPRGCRGEPLA | 0.536 ± 0.62 |
| TSFHYCCSR | 6.146 ± 0.03 |
| CNVWDVSGDTFVTYGKDDRG | 0.275 ± 0.25 |
| WMGIWYGCVWVFGMVGANNR | 2.2 ± 0.063 |
| TASMGVVVSDENWE | 0.633 ± 0.14 |
| VYPVSPIMKGV | 0.163 ± 0.49 |
| IMFMGNTVIRDCDLQ | 4.32 ± 0.062 |
| FMNNMSWLKNFILTWIYKRR | inactive |
| YIYRNITRLQKSCSIIISGR | -1.88 ± 0.64 |
| IVSTV | 0.655 ± 0.49 |
| APRGLTFVQQSVSSIHLTAK | 0.345 ± 0.39 |
| FDWNVDDYTFIYDN | -2.38 ± 0.75 |

| Substance | amyloid nucleation score |
| --- | --- |
| VLVSGYDLVVVDRVYLGRMF | 2.56 ± 0.085 |
| KFLHKQVFNFHVSGMNPMAS | 5.75 ± 0.069 |
| FFMPKGTLRSIGSLFR | -1.65 ± 1.1 |
| TSIILGFFLMTTLQN | inactive |
| NRAAKRGIRRHMSSYTYARV | 0.153 ± 0.36 |
| WHGPYYCGGCRTDIVCWNRA | 5.888 ± 0.05 |
| LALKGLLFSHNGKLEKGQV | -0.17 ± 0.79 |
| NPRGWAVEMVDYHSTFLKPE | 5.64 ± 0.075 |
| AMYICLRVIGSSGRSVMASK | 0.782 ± 0.16 |
| DLVVMSLRR | 6.18 ± 0.057 |
| AYVIRAKEC | 0.162 ± 0.39 |
| ISHTLHATITVLLVSNFCLS | 0.475 ± 0.43 |
| ANKTSPICSCVFNEL | 6.3 ± 0.088 |
| VLSLSVDFSCKRSCIMDTQV | 3.95 ± 0.087 |
| LSALCGIGCDCLPTLTKLIV | -0.089 ± 0.25 |
| HTDSLLWIPRVHFCVFF | inactive |
| TLGREVSKVQNATSFLPMQA | 0.926 ± 0.29 |
| KSQVPPNFWVVMCLTEFSVV | 5.628 ± 0.046 |
| LLEYCCYFYRN | 3.57 ± 0.12 |
| IKGVRQHLTTYKGTL | -0.408 ± 0.49 |
| IVDSIFTFGTRVDGWLGDCA | -0.259 ± 0.32 |
| PRPVLAAALAKPLGTS | 0.87 ± 0.23 |
| STSVWRGLSRPRNVQRRLDT | -0.985 ± 0.42 |
| TWKTSLS | inactive |
| VDHLFIRIHSVMIPAL | -0.447 ± 1.1 |

| Substance | amyloid nucleation score |
| --- | --- |
| CSMVNDLSFNIEARMQSWNS | 0.028 ± 0.79 |
| LGHTH | 1.06 ± 0.53 |
| NLIFI | inactive |
| YSYTTVFNIASNTTNELATC | -0.375 ± 0.2 |
| IRIACSGLSDRFMNRVHLHS | -0.017 ± 0.46 |
| DEIQGLNRRYLPRG | 0.936 ± 0.52 |
| LYKAGIGILLTGVILVF | -1.12 ± 0.6 |
| SGRIYSGDETMFRWECRYWC | 3.25 ± 0.051 |
| AALELSRNKFSVRIICVLLW | -0.238 ± 1.1 |
| RSLGTRAFAVRFRTSCWINV | -0.317 ± 0.46 |
| CYMTFYVMLTLDRTQSHSGH | 7.411 ± 0.051 |
| PWCESLCVRRGAESVSTWVK | 1.2 ± 0.22 |
| YDNSYNWTATTFFGSRPDQS | 4.55 ± 0.048 |
| FADTKDEGLYFGLMALLLEV | 0.016 ± 0.65 |
| DGFHQCAS | 3.74 ± 0.089 |
| AFVSYLCCGMYRVANSKSEG | 9.903 ± 0.058 |
| VVILTFKAVYTAKFYACCAV | -0.104 ± 0.45 |
| RVTHAFCSSINGTNANYPRR | 2.54 ± 0.097 |
| SPLCVF | -0.211 ± 0.38 |
| SLNYIFLNLCRYLSCGIYIH | inactive |
| NKEECL | 0.021 ± 0.35 |
| VNVDWCLLSVLVFNLETNPR | 6.699 ± 0.032 |
| LPTFSPQ | 3.77 ± 0.13 |
| VYCFNSRSNFHTLMLSSGYG | -0.594 ± 0.55 |
| FSEFIYLCTSLMDARQGMVP | -0.804 ± 1.1 |

| Substance | amyloid nucleation score |
| --- | --- |
| VLREDSIELWPDGTVGGRTG | 1.35 ± 0.37 |
| GDGFLSFSERSKKYSQSS | -0.855 ± 0.55 |
| CSVVGWE | 0.671 ± 0.66 |
| LRGHRPFLVY | -0.02 ± 1.1 |
| HEQLW | -0.243 ± 0.48 |
| KITRWLCYIFTTLL | -1.7 ± 1.1 |
| FLSWCFW | 0.841 ± 0.42 |
| SGNAGLFNRARGSVVTAVLV | 0.463 ± 0.64 |
| GDFLWNLWVYHNY | 1.05 ± 0.17 |
| SFKLYLYVGAVFFRLLSLVS | -1.08 ± 0.76 |
| LFDVADIDA | 0.736 ± 0.74 |
| LVLRQLVR | inactive |
| FQDWCHREYYLRLREVSLGG | inactive |
| DLRIREMDLGNWSWASR | 0.653 ± 0.23 |
| FGLYRVRGRSEYRVDHTGWG | 0.534 ± 0.51 |
| MYGTTRLVLWAVIDWFEGVG | -0.718 ± 0.49 |
| IHLWICSISYNAVSIRFTSY | 1.42 ± 0.097 |
| STAWKCEVYRRV | 1.14 ± 0.33 |
| LSFFMPDT | -1.53 ± 0.36 |
| DWLYMMKIARSPVVCRSRPS | 0.38 ± 0.35 |
| YRKHRLLH | -0.893 ± 0.76 |
| QGNSETGGNMCYDASCWLYG | -0.064 ± 0.45 |
| TTEYG | 0.239 ± 0.5 |
| GFFVVISGRMKVYVQGKSWL | -0.325 ± 0.56 |
| YNWHMSHFYDLGP | 4.99 ± 0.099 |

| Substance | amyloid nucleation score |
| --- | --- |
| YYYTLLSLHHMFCVTYELSG | 5.443 ± 0.035 |
| NLHVGREPQGSEYVDPFSVV | 0.731 ± 0.25 |
| YLRMDLVKWKWVGDGSQVC | 2.86 ± 0.08 |
| FRTQAF | 1.16 ± 0.47 |
| VGVFNFAGTTTSVGVNVSYT | 2.78 ± 0.1 |
| QGHISHTGLIPMLGGSL | 3.23 ± 0.15 |
| PVMDNLFSKAFVG | -0.741 ± 0.5 |
| CLFSTCTRCCLSNGFNAITR | inactive |
| KLQSCCIF | 6.23 ± 0.084 |
| RISVYRPVGVLLF | 0.755 ± 0.4 |
| IYSEWLSLVYSLGAPVTLNS | -0.015 ± 0.46 |
| ITIYQYTNYLYGSWCNHLML | 0.157 ± 1 |
| SIMGYGFDVRCELCDVTGGW | -0.079 ± 0.53 |
| TAAVILLIVNRDANA | 1.94 ± 0.14 |
| MYWLFR | 0.461 ± 0.25 |
| TSPSYVTSCYRFVKEIDHWK | -1.29 ± 1.1 |
| MFMSQIPYQCGVKSNSVISK | -0.357 ± 0.49 |
| NVYDRGVIGYMSNNVHTEGI | -1.07 ± 1.1 |
| GDSPNNSYWIADSW | 2.75 ± 0.15 |
| ALMDCACFVYSRD | -0.199 ± 1.1 |
| FCDFY | -1.2 ± 0.41 |
| SSLWSGPKVIQDY | -0.122 ± 0.28 |
| FILQQAYGDWFTVDSNSCIM | -1.64 ± 1.1 |
| RLQRVLS | -0.458 ± 0.42 |
| KKVRNC | 0.436 ± 0.8 |
